The values that follow come from publication PMC11321386 (Blood advances, 2024).

This assay deals with GPVI-Fc dimer (UniProt Q9HCN6). Briefly: ELISA. For orientation: ELISA stands for enzyme-linked immunosorbent assay.

B1: nanobody 2 (Nb2) (VHH)
VHH: QVQLQESGGGLVQPGGSLRLSCAAAGFTFDYYAIAWFRQAPGKEREGVSCISSSDGTTYYADSVKGRFTISKDNAKNTMYLQMNSLKPEDTAVYYCATSPLYSTNDRCISEDYDYWGQGTQVTVSS
B1: the binding result was “binds”.
